Test results taken from patent publication US20240376214A1, “ANTI-C-MET ANTIBODIES AND ANTIBODY-DRUG CONJUGATES” (BYONDIS B.V., priority 2021, published 2024).

Legend:
c-Met = target: T1, c-Met (Homo sapiens, UniProt P08581, DEL964-1010); assay: Functionality of chimeric antibodies, stimulation of proliferation experiment in NCI-H596 cells; type: cell-based
T1 construct: endogenous in cells; host or cells: NCI-H596
Source text: From this perspective, although all three wt/41C chimeric mAbs were humanized and studied in further experiments, wt/41C-chi-mAb3 is the most preferred chimeric anti-c-Met antibody to further develop into an ADC for treatment of a cancer indication.

[1] = target: T2, human c-Met (HGFR), full length, on the cell surface (human, UniProt P08581 25-1390); assay: cell-based or functional assay
[2] = target: T2, human c-Met (HGFR), full length, on the …; assay: cell binding on c-Met positive MKN45 cells, fluorescence readout RFU (R-PE), mean ± S.E.M. of two experiments in duplicate
[3] = tested on: c-Met-positive tumor cell lines MKN45, NCI-H441 and PC-3; assay: Internalization by flow cytometry (AF488 quenching); type: cell-based, human
Experimental: Internalization of mAb3b was studied in human c-Met-positive tumor cell lines MKN45, NCI-H441 and PC-3. Cells (100,000 cells/well of a 96-well round bottomed microtiter plate) were incubated for 30 minutes at 4° C. with 50 μL 10 μg/mL mAb3b or appropriate non-binding control antibody. After a wash step with ice-cold complete growth medium (CGM) consisting of RPMI (Lonza) supplemented with 10% heat inactivated (HI) fetal bovine serum (FBS) (Gibco) and 80 U/mL penicillin/streptomycin (Lonza), the cells were incubated for 30 minutes at 4° C. with 50 μL Alexa Fluor 488 (AF488)-labeled Fab Fragment goat anti-human IgG (1:600 dilution) (Jackson Immunoresearch). After a wash step with ice-cold CGM, cells were resuspended in 150 μL pre-warmed CGM and transferred to polypropylene tubes, one for each time point (0 h, 0.5 h, 1 h, 3 h, 24 h) and placed into a 37° C. water bath to initiate internalization. […] Identical unquenched tubes were determined for the total fluorescence at each time point. Fluorescence intensities were determined by flow cytometry (BD FACSVerse, Franklin Lakes, NJ) and indicated as the Median Fluorescence Intensity (MFI). Internalization was quantified by calculating the percentage of internalization with the formula described. […]

[4] = target: T2, human c-Met (HGFR), full length, on the …; assay: flow cytometry, PC-3 cells; EC50 with 50 ng/mL HGF against EC50 without HGF
Experimental: (§1) Cellular binding of the in total 75 humanized anti-c-Met antibodies (originating from the three selected chimeric antibodies) was studied in human c-Met-positive tumor cell lines MKN45, NCI-H596 and PC-3, rhesus c-Met-positive tumor cell line 4 MBr-5, and human c-Met-negative tumor cell line MDA-MB-175-VII. Cells were used around 90% of confluence at the time of an assay, detached with Trypsin-Versene (EDTA) (Lonza) for 5-10 minutes, washed and adjusted to a concentration of 1×10⁶ cells/mL in ice-cold FACS buffer (PBS 1×, 0.1% v/w BSA, 0.02% v/v sodium azide (NaN₃)). Staining was performed in 96-well round-bottomed microtiter plates using ice-cold reagents/solutions at 4° C. to prevent the modulation and internalization of surface antigens. 100,000 cells/well were added to 96-well plates (100 μL/well) and centrifuged at 300×g for 3 minutes. In case of pre-incubation with HGF, the cells were resuspended in 50 ng/mL recombinant human HGF in FACS buffer (50 μL/well) and incubated for 30 minutes at 4° C., followed by two wash steps with 150 μL FACS buffer. Supernatant was discarded and cells were stained for 30 minutes with 50 μL of each antibody. Serial dilutions were made in ice-cold FACS buffer. Cells were washed twice by centrifugation at 300×g for 3 minutes and resuspended in 50 μL 6000-times diluted secondary F(ab′)₂ goat anti-human IgG (Fc fragment specific) antibody APC-conjugated (Jackson ImmunoResearch). Following a 30-minute incubation on ice, cells were washed again 2 times and resuspended in 150 μL ice-cold FACS buffer for FACS analysis. For analysis of the data, the Median Fluorescence Intensity (MFI) values were obtained.

[5] = target: T2, human c-Met (HGFR), full length, on the …; assay: flow cytometry, NCI-H596 cells, without HGF
Experimental: as §1

[6] = target: T2, human c-Met (HGFR), full length, on the …; assay: flow cytometry, NCI-H596 cells pre-incubated with 50 ng/mL HGF
Experimental: as §1

[7] = target: T2, human c-Met (HGFR), full length, on the …; assay: flow cytometry, PC-3 cells, without HGF
Experimental: as §1

[8] = target: T3, rhesus c-Met on 4MBr-5 cells (rhesus, UniProt F7H1K4 25-1381, Natural c-Met is cleaved at the furin site (KRKKR/S) into disulphide-linked alpha and beta subunits; given here as one mature polypeptide.); assay: flow cytometry, 4MBr-5 cells pre-incubated with 50 ng/mL HGF
T3 construct: also called rhesus c-Met antigen
T3 sequence (F7H1K4 entry or part of it limits assumed): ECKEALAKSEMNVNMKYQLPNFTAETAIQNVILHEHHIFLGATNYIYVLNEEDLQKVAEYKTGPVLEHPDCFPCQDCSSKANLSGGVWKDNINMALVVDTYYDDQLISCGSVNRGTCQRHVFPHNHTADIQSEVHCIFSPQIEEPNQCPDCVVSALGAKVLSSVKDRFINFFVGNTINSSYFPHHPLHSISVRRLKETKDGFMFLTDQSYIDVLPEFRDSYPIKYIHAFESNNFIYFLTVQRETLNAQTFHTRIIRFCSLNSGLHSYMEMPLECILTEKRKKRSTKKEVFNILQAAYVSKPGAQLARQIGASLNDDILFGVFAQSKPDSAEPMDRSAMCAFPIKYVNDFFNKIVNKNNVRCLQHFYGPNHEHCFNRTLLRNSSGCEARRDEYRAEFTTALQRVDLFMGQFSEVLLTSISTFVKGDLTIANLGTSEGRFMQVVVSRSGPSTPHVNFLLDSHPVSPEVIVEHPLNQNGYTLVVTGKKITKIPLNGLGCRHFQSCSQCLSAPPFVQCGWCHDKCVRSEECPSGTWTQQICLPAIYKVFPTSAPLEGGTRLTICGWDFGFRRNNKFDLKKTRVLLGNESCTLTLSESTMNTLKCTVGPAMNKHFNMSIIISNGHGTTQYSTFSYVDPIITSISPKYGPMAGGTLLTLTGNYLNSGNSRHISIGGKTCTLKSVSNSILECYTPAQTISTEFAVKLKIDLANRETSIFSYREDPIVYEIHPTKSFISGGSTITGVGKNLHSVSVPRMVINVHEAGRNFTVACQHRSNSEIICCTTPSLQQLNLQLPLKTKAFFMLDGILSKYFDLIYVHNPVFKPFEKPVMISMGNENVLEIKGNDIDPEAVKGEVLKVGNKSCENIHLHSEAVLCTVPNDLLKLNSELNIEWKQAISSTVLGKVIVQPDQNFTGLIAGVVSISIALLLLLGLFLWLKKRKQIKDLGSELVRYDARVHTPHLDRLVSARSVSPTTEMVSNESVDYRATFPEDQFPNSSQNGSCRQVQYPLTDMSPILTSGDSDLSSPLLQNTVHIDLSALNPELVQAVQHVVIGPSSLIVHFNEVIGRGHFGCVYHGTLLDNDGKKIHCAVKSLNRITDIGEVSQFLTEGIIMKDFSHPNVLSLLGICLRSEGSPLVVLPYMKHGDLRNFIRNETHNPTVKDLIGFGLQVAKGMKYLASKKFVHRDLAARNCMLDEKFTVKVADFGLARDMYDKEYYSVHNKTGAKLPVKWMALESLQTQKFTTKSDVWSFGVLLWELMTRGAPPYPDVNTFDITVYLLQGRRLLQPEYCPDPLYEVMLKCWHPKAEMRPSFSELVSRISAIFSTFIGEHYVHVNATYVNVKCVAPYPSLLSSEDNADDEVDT
Experimental: as §1

[9] = target: T4, biotinylated human c-Met extracellular domain (human, UniProt P08581 25-932, biotinylated (site not stated)); assay: SPR (Biacore T200, 37 C), biotinylated c-Met captured on CAP chip, mAb3b as analyte, 1:1 Langmuir fit; KD-obs
T4 construct: also called Human c-Met ECD
Experimental: (§2) Binding analysis was performed on a Surface Plasmon Resonance instrument (Biacore© T200 system, GE Life Sciences) at 37° C. Biotinylated human or cyno c-Met was captured on the surface of a CAPchip made suitable for capture of biotinylated molecules (Sensor Chip CAP, GE Life Sciences) by injection of Biotin Capture reagent for 300 seconds at 2 μL/min on flow cell 1 and 2. A dilution of the biotinylated c-Met antigen in running buffer (10 mM HEPES buffer at 25° C., pH 7.4 with 150 mM NaCl, 3 mM EDTA and 0.005% v/v polyoxyethylene (20) sorbitan monolaurate (Surfactant P20) was injected at variable contact times to obtain different capture levels at 5 μL/min. The dilution and contact time for c-Met variant was estimated with the aim for a capture level around 20 RU. After a one-minute baseline, the mAb3b sample was injected in five increasing concentrations (0.037, 0.11, 0.33, 1 and 3 nM) at […] for 60 seconds with a 900-second dissociation time. The Rₘₐₓ for the interactions was between 5-10 RU. Regeneration was performed with 6 M guanidine-HCl, 0.25 M NaOH solution (120 seconds with flow rate of […]). […] The sensorgrams were fitted to a 1:1 Langmuir binding model and subsequently evaluated for the goodness of the fit (chi2), the uniqueness of the fit (U-value) and by visual inspection and biological relevance.

[10] = target: T5, biotinylated cynomolgus c-Met extracellular domain (cynomolgus, UniProt A0M8R7 25-932 (Papio anubis entry), biotinylated (site not stated)); assay: as above
T5 construct: also called Cyno c-Met ECD
T5 sequence (A0M8R7 25-932 S170N/I621T limits assumed): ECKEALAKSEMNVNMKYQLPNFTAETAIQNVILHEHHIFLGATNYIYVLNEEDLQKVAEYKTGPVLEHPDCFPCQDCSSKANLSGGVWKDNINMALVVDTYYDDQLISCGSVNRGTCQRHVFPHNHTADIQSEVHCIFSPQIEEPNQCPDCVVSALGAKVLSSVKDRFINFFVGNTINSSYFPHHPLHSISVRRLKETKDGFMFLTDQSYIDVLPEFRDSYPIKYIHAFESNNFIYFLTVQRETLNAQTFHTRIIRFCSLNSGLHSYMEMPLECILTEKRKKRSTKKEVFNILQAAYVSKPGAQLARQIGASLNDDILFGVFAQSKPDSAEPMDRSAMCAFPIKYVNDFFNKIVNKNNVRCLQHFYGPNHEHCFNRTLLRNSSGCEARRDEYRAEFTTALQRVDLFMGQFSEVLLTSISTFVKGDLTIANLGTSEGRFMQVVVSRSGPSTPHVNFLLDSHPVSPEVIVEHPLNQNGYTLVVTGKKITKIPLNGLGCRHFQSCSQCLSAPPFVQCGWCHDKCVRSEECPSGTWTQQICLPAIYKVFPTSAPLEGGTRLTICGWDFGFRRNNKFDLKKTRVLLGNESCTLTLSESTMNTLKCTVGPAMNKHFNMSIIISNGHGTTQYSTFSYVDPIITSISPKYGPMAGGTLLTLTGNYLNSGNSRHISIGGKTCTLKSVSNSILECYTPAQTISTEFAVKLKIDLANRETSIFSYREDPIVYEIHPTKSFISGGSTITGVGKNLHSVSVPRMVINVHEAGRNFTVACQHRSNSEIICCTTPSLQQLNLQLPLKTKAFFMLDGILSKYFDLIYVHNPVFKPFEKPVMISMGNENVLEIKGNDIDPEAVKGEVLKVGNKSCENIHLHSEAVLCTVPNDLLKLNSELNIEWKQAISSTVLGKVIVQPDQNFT
Experimental: as §2

[11] = target: T3, rhesus c-Met on 4MBr-5 cells; assay: flow cytometry, 4MBr-5 cells, without HGF
Experimental: as §1

[12] = target: T2, human c-Met (HGFR), full length, on the …; assay: flow cytometry, MKN45 cells, without HGF
Experimental: as §1

[13] = target: T2, human c-Met (HGFR), full length, on the …; assay: flow cytometry, NCI-H596 cells; EC50 with 50 ng/mL HGF against EC50 without HGF
Experimental: as §1

[14] = target: T2, human c-Met (HGFR), full length, on the …; assay: flow cytometry, PC-3 cells pre-incubated with 50 ng/mL HGF
Experimental: as §1

[15] = target: T3, rhesus c-Met on 4MBr-5 cells; assay: flow cytometry, 4MBr-5 cells; EC50 with 50 ng/mL HGF against EC50 without HGF
Experimental: as §1

B1: wt-chi-mAb2: wild-type chimeric anti-c-Met IgG1 antibody, VH SEQ ID NO:3, VL SEQ ID NO:4 (antibody, V domains shown)
VH: QVQLQQSGAELVRPGASVKLSCKASGYVFPDYEMHWVKQTPVHGLEWIGAFDPETGDTTYNQNFKGKATLTADKASSTAYMDLRSLTSGDSAVYYCARDYKYLYYYAMDNWGQGTSVTVSS
VL: QIVLTQSPAIMSASLGERVTMTCTASSSITSSYLHWYQQKPGSSPKLWIYSTTNLASGVPGRFSGSGSGTSFSLTISSMEAEDAATYYCHQYRRSPLTFGAGTKLELK
modifications: human IgG1 constant regions; HCVR; LCVR
- Functionality (c-Met): Partial agonist

B2: ADC3b (antibody, human IgG1, kappa, V domains shown)
VH: QVQLVQSGAEVKKPGASVKVSCKASGYTFTDYYLNWVRQACGQGLEWMGLIFPGNDKTEYSEKFKGRVTLTTDTSISTAYMELSSLTSDDTALYYCSGGDYGGFVYWGQGTLVTVSS
VL: DIQMTQSPSSLSASVGDRVTISCGASENIYGALNWYQQQPGKAPKVLIFGATNLADGVPSRFSGSGSGTDFTLTISSLQPEDFATYYCQNVLSSPLTFGQGTKLEIKR
modifications: vc-seco-DUBA linker-drug on the engineered cysteine at HC position 41 (Kabat); DAR 1.9
notes: Antibody-drug conjugate of mAb3b; also called mAb3b-vc-seco-DUBA
- Efficacy (%), in vitro cytotoxicity, MKN-45, -HGF [1]: 84%
- Efficacy (%), in vitro cytotoxicity, NCI-H596, +HGF [1]: 44%
- Efficacy (%), in vitro cytotoxicity, NCI-H596, -HGF [1]: 10%
- Efficacy (%), in vitro cytotoxicity, PC-3, +HGF [1]: 75%
- Efficacy (%), in vitro cytotoxicity, PC-3, -HGF [1]: 75%
- IC50 1, in vitro cytotoxicity, PC-3, -HGF [1]: 50 pM
- IC50, in vitro cytotoxicity, MKN-45, -HGF [1]: 380 pM
- IC50, in vitro cytotoxicity, NCI-H596, +HGF [1]: 1470 pM
- IC50, in vitro cytotoxicity, NCI-H596, -HGF [1]: > 10000 pM
- IC50, in vitro cytotoxicity, PC-3, +HGF [1]: ~1010 pM
- EC50 (read off the curve) [2]: ~0.04 µg/mL

B3: mAb3b: HC-41C humanized anti-c-Met antibody, VH SEQ ID NO:16, VL SEQ ID NO:20 (antibody, V domains shown)
VH: QVQLVQSGAEVKKPGASVKVSCKASGYTFTDYYLNWVRQACGQGLEWMGLIFPGNDKTEYSEKFKGRVTLTTDTSISTAYMELSSLTSDDTALYYCSGGDYGGFVYWGQGTLVTVSS
VL: DIQMTQSPSSLSASVGDRVTISCGASENIYGALNWYQQQPGKAPKVLIFGATNLADGVPSRFSGSGSGTDFTLTISSLQPEDFATYYCQNVLSSPLTFGQGTKLEIK
modifications: humanized HCVR; humanized LCVR
- Internalization ([3]; 10 μg/mL, each of MKN45, NCI-H441, PC-3): Efficient internalization
- time of maximum internalization ([3]; each of the cell lines): 24 h

B4: mAb3b (antibody, human IgG1, kappa, V domains shown)
VH: QVQLVQSGAEVKKPGASVKVSCKASGYTFTDYYLNWVRQACGQGLEWMGLIFPGNDKTEYSEKFKGRVTLTTDTSISTAYMELSSLTSDDTALYYCSGGDYGGFVYWGQGTLVTVSS
VL: DIQMTQSPSSLSASVGDRVTISCGASENIYGALNWYQQQPGKAPKVLIFGATNLADGVPSRFSGSGSGTDFTLTISSLQPEDFATYYCQNVLSSPLTFGQGTKLEIKR
notes: Humanized IgG1 kappa, HC-41C, from wt/41C-chi-mAb3; also called humanized HC-41C antibody mAb3b
- Fold shift (HGF) [4]: 2 fold
- EC50 [5]: 0.02 µg/mL
- EC50 [6]: 0.07 µg/mL
- EC50 [7]: 0.03 µg/mL
- EC50 [8]: 0.04 µg/mL
- Kd [9]: < 10 pM
- Kd [10]: < 10 pM
- EC50 [11]: 0.02 µg/mL
- EC50 [12]: 0.06 µg/mL
- Fold shift (HGF) [13]: 3.5 fold
- EC50 [14]: 0.06 µg/mL
- Fold shift (HGF) [15]: 1.8 fold
- EC50 (read off the curve) [2]: ~0.06 µg/mL
